Each block holds one substance with its values, some of them ahead of it.
Tests used:
[1] = target: Rse ligand (Rse-L) in fetal bovine serum, unpurified or Q-Sepharose enriched (bovine) (UniProt P07224); test: Scatchard analysis, 125I-Rse-IgG displaced by unlabeled Rse-IgG on CMK11-5 membranes, 1% FBS
[2] = target: recombinant human gas6 (human); test: 125I-Rse-IgG and purified gas6, displaced by unlabeled Rse-IgG, barium chloride coprecipitation
[3] = target: Rse ligand (Rse-L) in fetal bovine serum, unpurified or Q-Sepharose enriched (bovine) (UniProt P07224); test: Scatchard analysis, 125I-Rse-IgG displaced by unlabeled Rse-IgG on CMK11-5 membranes, 10% FBS
[4] = target: Rse.gD (human Rse receptor with a C-terminal HSV-1 glycoprotein D flag) on dp12.CHO cells (human) (UniProt Q06418)
[5] = target: Rse-IgG fusion protein (extracellular domain of human Rse followed by the Fc portion of human IgG) (human) (UniProt Q06418); test: 125I-Rse-IgG binding assay
[6] = target: Rse-IgG fusion protein (extracellular domain of human Rse followed by the Fc portion of human IgG) (human) (UniProt Q06418); test: 125I-Rse-IgG binding to CMK11-5 membranes
[7] = target: Rse.gD (human Rse receptor with a C-terminal HSV-1 glycoprotein D flag) on dp12.CHO cells (human) (UniProt Q06418); remark: listed apart in the source

Substance: Rse-IgG fusion protein (extracellular domain of human Rse followed by the Fc portion of human IgG) (from UniProt Q06418) (Fc fusion)
Kd [1]: 0.82 nM
Kd [2]: 0.46 nM
Kd [3]: 2.2 nM

Substance: human protein S (ligand)
fold lower affinity than purified bovine protein S [5]: 200 fold
EC50 [6]: > 250 nM

Substance: purified bovine protein S (Rse-L purified from fetal bovine serum) (from UniProt P07224) (ligand)
EC50 [6]: 1.2 nM

Next, values leading:

KIRA assay, EC50 for activation [4]: 0.4 nM
Substance: gD.gas6.279-C.IgG (from UniProt P01857-1) (Fc fusion)

KIRA assay, specific activity (KIRA units/mg P) [7]: 1170
Substance: recombinant human gas6 (ligand)

KIRA assay, specific activity (KIRA units/mg P) [7]: 3160
Substance: recombinant human gas6 lacking the gamma-carboxyl modification of glutamic acid (form 2) (ligand)

— patent US5955420
